Three molecules from patent US20190315842A1 (DUKE UNIVERSITY, published 2019) can be followed below.

Where “and” joins values, the source holds several entries; their conditions need not be identical. Equal values may be shown once.

Test [1] has as its target T1, reduced form of Complement Factor H (CFH), treated with TCEP (human, UniProt P08603 19-1231, disulfides reduced with 10 mM TCEP).
T1 construct: also called reduced CFH; reduced form of CFH
The test can be described thus: immunoblot, SDS-PAGE under reducing conditions, antibody at 0.5 µg/ml, anti-human IgG-HRP, chemiluminescence; lane numbers as in Table 10. (In general: A western blot detects proteins with antibodies after separation by electrophoresis.)

Test [2] deals with T2, Complement Factor H (CFH) protein, full-length (human, UniProt P08603 19-1231).
T2 construct: also called full-length CFH; native CFH
The test can be described thus: immunoblot, SDS-PAGE under non-reducing conditions, antibody at 0.5 µg/ml, anti-human IgG-HRP, chemiluminescence; lane numbers as in Table 10.

Test [3] addresses T3, 15-mer peptide GPPPPIDNGDITSFP (SEQ ID NO: 114) (human).
T3 construct: Immobilized for SPR; also called parent peptide
T3 peptide: GPPPPIDNGDITSFP
The test can be described thus: assay and antigen not given; Example 10, epitope mapping on the 15-mer peptide.

The target of test [4] is T4, centromere B (CentB) (UniProt P07199 2-599).
T4 sequence (looked up): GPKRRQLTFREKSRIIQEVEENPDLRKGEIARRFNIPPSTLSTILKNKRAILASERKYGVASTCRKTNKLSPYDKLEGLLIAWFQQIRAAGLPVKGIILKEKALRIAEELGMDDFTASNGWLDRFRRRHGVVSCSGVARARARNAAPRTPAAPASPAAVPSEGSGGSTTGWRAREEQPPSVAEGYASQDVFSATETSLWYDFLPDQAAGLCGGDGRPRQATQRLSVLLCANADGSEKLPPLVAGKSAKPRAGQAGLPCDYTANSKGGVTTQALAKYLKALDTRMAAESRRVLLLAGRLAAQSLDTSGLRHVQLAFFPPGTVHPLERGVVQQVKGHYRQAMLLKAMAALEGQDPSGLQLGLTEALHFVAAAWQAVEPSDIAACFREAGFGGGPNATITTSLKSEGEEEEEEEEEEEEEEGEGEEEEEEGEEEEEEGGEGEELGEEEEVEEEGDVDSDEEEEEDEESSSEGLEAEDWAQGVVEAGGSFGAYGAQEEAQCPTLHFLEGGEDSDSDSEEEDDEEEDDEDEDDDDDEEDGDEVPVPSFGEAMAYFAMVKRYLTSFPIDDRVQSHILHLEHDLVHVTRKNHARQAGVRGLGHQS
The test can be described thus: AtheNA Multi-Lyte ANA, Ab at 25 ug/ml.

The target in test [5] is T5, systemic lupus erythematosus autoantigen SSB (UniProt P05455 1-408, limits assumed).
T5 sequence (looked up): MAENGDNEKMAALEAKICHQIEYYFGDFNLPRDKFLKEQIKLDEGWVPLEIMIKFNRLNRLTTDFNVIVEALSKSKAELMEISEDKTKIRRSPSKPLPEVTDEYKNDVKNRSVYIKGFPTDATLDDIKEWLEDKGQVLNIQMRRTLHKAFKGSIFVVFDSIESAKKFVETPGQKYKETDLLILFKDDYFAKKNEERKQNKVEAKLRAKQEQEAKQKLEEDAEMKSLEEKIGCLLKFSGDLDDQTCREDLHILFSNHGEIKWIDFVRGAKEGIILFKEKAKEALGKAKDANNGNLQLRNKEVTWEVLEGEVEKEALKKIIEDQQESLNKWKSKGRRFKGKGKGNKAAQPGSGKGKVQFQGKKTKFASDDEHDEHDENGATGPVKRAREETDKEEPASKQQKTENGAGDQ
Put plainly: AtheNA Multi-Lyte ANA, Ab at 25 ug/ml.

Test [6] deals with T3, 15-mer peptide GPPPPIDNGDITSFP (SEQ ID …). Put plainly: SPR (BIAcore), mAb at 25, 50 or 100 nM over immobilized 15-mer peptide. In general terms: SPR reads the build-up and loss of mass on a sensor chip optically.
Test [7] has as its target T6, reduced SCR19-20 (human CFH short consensus repeat domains 19 and 20, reduced) (human, UniProt P08603 1107-1231, disulfides reduced with TCEP or reducing SDS-PAGE).
T6 construct: domain: SCR19-20; Same construct as m3, reduced
T6 sequence (looked up): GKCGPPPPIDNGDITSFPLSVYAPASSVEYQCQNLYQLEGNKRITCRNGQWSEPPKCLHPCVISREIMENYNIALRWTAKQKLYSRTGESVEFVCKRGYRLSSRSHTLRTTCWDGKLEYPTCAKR
Put plainly: immunoblot, SDS-PAGE under reducing conditions, anti-human IgG-HRP, chemiluminescence; lane numbers as in Table 10.

The target of test [8] is T1, reduced form of Complement Factor H …. The description is as above.
Test [9] deals with T2, Complement Factor H (CFH) protein, …. Put plainly: immunoblot, SDS-PAGE under non-reducing conditions, anti-human IgG-HRP, chemiluminescence; lane numbers as in Table 10.

B1: Ab7957/293i (antibody, IgG1, V domains shown)
VH: LVESGGGVVPPGKSLRLSCAASGFTFSLYGIHWVRQAPGKGLEWVAVISYDGNTKYYTDSVKGRFTISRDNAKNTIYLQMNSLRLDDTAVYYCAKGAANSATFDFWGRGTMVTVSS
VL: MTQSPDSLTLSLGERATINCRSSRTVLYRSNNKNYLAWYQHKPGQPPKLLMSWASTRETGVPDRFSGSGSGTHFTLTITSLQPEDVAVYYCQQYYSPPWTFGQGTKVEIR
notes: Recombinant human antibody with IgG1 heavy chain backbone and kappa light chain constant; they begin at LVESGGG and MTQSP; also called Ab7957i; mAb 7957
What is called EC50 is the concentration giving half of the maximal effect. A higher EC50 goes with weaker potency. For B1, the binding result in [1] and in [2] was “binds” throughout. The molecule further showed an EC50 in test [3] of 9.08 ng/mL. This molecule displayed an AtheNA signal in test [4] of 2.

B2: Ab7968 (antibody, IgG1, V domains shown)
VH: LVESGGGVVQPGRSLRLSCAASGFTFSRYGMHWVRQAPGKGLEWVAVMSYDGSTKYYADSVKGRFAISRDNPKNTLFLQMNSLRPDDTAVYYCAKGGAAAAVMDVWGKGTTVTVSS
VL: MTQSPDSLTVSLGERATISCKSSQRLLYSSNNKNYLAWYQQKPGQPPKLLMYWASTRESGVPDRFSGSGSGTDFSLTISSLQAEDVAVYYCQQYYNPPWTFGQGTKVEVK
notes: Recombinant human antibody with IgG1 heavy chain backbone and kappa light chain constant; they begin at LVESGGG and MTQSP; also called mAb 7968; mAb7968
One may read the Kd as the concentration at which binding is half-saturated. Low readings indicate tighter binding, high ones weaker binding. The term koff denotes a measure of how fast the partners let go of each other. Broadly, the kon is the rate constant with which the complex forms. High values mean faster complex formation, low ones slower complex formation. As for B2, the EC50 in [3] came to 7.98 ng/mL. Also, the AtheNA signal in test [5] worked out at 8. Besides, in test [6], the Kd is ~2.5 pM and 2.46 pM; the off-rate (koff) amounted to 5.56e-07 s⁻¹; the association rate constant (kon) is 226000 M⁻¹ s⁻¹.

B3: Ab7962/293i (antibody, V domains shown)
VH: LVESGGGLVQPGGSLRLSCAASGFTFSSYEMNWVRQAPGKGLEWVSYISSSGSTIYYADSVKGRFTISRDNAKNSLYLQMNSLRAEDTAVYYCARVEQLAPSPYMDVWGKGTTVTVSS
VL: MTQSLDSLTVSLGERATINCKSSQSLLYTSNNKNYLAWYQQKSGQPPKLLIYWASIRDSGVPDRFSGSGSATDFTLTINNLQAEDVAVYFCQQYYKTPLTFGGGTKVEVR
notes: Recombinant human antibody with IgG1 heavy chain backbone and kappa light chain constant (IgM in the donor B cell); they begin at LVESGGG and MTQSL; also called clone 27; pH007962/pK005996
For the molecule B3, the binding result in test [7], in test [8] and in [9] was “no binding (tested: 0.5 µg/ml)” each time.
